The results in this text go back to patent US20140378537A1 (Genentech, published 2014).

First the molecules themselves.
T1: His-tagged IRF4 (murine, UniProt Q64287 1-450)
T1 construct: not shown: His tag
T1 sequence: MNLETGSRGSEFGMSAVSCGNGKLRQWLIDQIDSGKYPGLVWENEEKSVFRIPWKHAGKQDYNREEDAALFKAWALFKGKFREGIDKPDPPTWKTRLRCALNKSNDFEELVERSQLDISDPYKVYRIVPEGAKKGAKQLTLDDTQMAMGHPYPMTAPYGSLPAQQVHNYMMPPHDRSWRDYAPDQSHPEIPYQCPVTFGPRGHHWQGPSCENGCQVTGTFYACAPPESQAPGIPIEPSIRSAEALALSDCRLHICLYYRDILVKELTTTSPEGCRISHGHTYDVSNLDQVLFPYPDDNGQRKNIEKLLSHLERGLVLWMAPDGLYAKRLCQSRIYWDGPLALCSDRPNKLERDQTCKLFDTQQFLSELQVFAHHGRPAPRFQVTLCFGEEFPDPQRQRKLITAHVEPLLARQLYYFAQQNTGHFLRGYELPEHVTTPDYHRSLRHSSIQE

T2: murine JunB (murine, UniProt P09450 1-344)
T2 construct: AP-1 family transcription factor, used as nuclear extract
T2 sequence (looked up): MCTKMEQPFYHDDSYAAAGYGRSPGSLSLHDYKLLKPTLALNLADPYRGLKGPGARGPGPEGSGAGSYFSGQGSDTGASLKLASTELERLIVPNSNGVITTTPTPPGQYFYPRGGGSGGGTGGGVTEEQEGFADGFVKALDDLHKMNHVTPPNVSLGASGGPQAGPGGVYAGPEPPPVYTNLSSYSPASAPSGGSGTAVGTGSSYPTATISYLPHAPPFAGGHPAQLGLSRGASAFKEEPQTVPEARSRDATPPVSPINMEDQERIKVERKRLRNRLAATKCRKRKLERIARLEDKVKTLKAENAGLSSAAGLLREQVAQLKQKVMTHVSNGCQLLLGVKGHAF

T3: BATF/JunB heterodimer (murine, UniProt O35284 1-125; P09450 1-344)
T3 construct: Formed by mixing 293T nuclear extracts, or endogenous in Th17 nuclear extracts; also called BATF/JunB complex
T3 sequence (looked up) 1: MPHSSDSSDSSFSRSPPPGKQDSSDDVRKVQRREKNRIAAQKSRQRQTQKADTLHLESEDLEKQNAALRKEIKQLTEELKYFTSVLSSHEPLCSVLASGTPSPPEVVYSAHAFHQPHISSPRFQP
T3 sequence (looked up) 2: T2 sequence (looked up)

T4: JunB/FosL2 heterodimer (murine, UniProt P09450 1-344; P47930 1-326)
T4 construct: also called FosL2/JunB heterodimer
T4 sequence (looked up) 1: T2 sequence (looked up)
T4 sequence (looked up) 2: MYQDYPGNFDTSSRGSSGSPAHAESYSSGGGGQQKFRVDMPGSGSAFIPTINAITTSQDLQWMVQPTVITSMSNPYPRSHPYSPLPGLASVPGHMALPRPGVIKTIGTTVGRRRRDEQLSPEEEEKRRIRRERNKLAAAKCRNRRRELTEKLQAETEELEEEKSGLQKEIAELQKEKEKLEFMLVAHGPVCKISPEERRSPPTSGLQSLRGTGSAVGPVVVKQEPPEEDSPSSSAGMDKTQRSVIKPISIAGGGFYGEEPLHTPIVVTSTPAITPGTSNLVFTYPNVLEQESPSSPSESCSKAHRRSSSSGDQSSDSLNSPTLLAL

B1: Flag-tagged BATF (other, murine, UniProt O35284 1-125, looked up)
chain: T3 sequence (looked up) 1
notes: not shown: Flag tag
B2: murine BATF (other, UniProt O35284 1-125, looked up)
chain: T3 sequence (looked up) 1
notes: AP-1 family transcription factor, used as nuclear extract
B3: murine IRF-8 (other)
chain: MCDRNGGRRLRQWLIEQIDSSMYPGLIWENDEKTMFRIPWKHAGKQDYNQEVDASIFKAWAVFKGKFKEGDKAEPATWKTRLRCALNKSPDFEEVTDRSQLDISEPYKVYRIVPEEEQKCKLGVAPAGCMSEVPEMECGRSEIEELIKEPSVDEYMGMTKRSPSPPEACRSQILPDWWVQQPSAGLPLVTGYAAYDTHHSAFSQMVISFYYGGKLVGQATTTCLEGCRLSLSQPGLPKLYGPDGLEPVCFPTADTIPSERQRQVTRKLFGHLERGVLLHSNRKGVFVKRLCQGRVFCSGNAVVCKGRPNKLERDEVVQVFDTNQFIRELQQFYATQSRLPDSRVVLCFGEEFPDTVPLRSKLILVQVEQLYARQLVEEAGKSCGAGSLMPALEEPQPDQAFRMFPDICTSHQRPFFRENQQITV
notes: Expressed from a CMV vector encoding murine IRF-8 in 293T cells and used as nuclear extract; also called ICSBP
B4: murine IRF-3 (other, UniProt P70671 1-419, looked up)
chain: METPKPRILPWLVSQLDLGQLEGVAWLDESRTRFRIPWKHGLRQDAQMADFGIFQAWAEASGAYTPGKDKPDVSTWKRNFRSALNRKEVLRLAADNSKDPYDPHKVYEFVTPGARDFVHLGASPDTNGKSSLPHSQENLPKLFDGLILGPLKDEGSSDLAIVSDPSQQLPSPNVNNFLNPAPQENPLKQLLAEEQWEFEVTAFYRGRQVFQQTLFCPGGLRLVGSTADMTLPWQPVTLPDPEGFLTDKLVKEYVGQVLKGLGNGLALWQAGQCLWAQRLGHSHAFWALGEELLPDSGRGPDGEVHKDKDGAVFDLRPFVADLIAFMEGSGHSPRYTLWFCMGEMWPQDQPWVKRLVMVKVVPTCLKELLEMAREGGASSLKTVDLHISNSQPISLTSDQYKAYLQDLVEDMDFQATGNI
notes: Used as 293T nuclear extract
B5: murine IRF-4 (other)
chain: T1 sequence
notes: Transcription factor; Expressed from CMV vectors encoding murine IRF-4 in 293T cells and used as nuclear extract, or endogenous in mouse Th17 nuclear extracts; also called Pip

In one assay the target is T1, His-tagged IRF4. The assay is described as follows: EMSA, 293T nuclear extracts, CTLA-4 and Bcl11b AICE DNA probes (DNA-dependent ternary complex). The protocol: Positions of various protein/DNA complexes are indicated. Nuclear extracts were incubated with either the wild type Bcl11b or CTLA-4 probes or their indicated mutant counterparts in which either the IRF or AP-1 site or both were altered.
(§1) Nuclear extracts were prepared from 293T cells (2×107), 48 hours after their transfection or from Th17 cells (8×107), 42 hours after their activation and differentiation. Cells were incubated for 10 min in 1 ml of hypotonic buffer (10 mM Hepes pH7.6, 10 mM KCl, 0.1 mM EGTA, 1.5 mM MgCl, 1 mM DTT, 0.5 mM PMSF and the complete protease inhibitor mixture (Roche, #11697498001) and then lysed with the addition of 0.01% Triton-x-100. After centrifugation at maximum speed in an Eppendorf microfuge for 15 seconds the nuclear pellet was resuspended in 80 μl of the following buffer (420 mM NaCl, 20 mM Hepes pH7.9, 0.2 mM EDTA, 25% Glycerol, 1 mM DTT, 0.5 mM PMSF with complete protease inhibitor mixture). Nuclear proteins were extracted with intermittent vortexing and incubation for 15 minutes at […]. In-vitro binding assays were performed using reagents from the light-shift chemiluminescent EMSA kit (Thermo scientific) according to the manufacturer's protocol, with the exception of using FAMlabeled probes (Table 2, below). Protein-DNA complexes were resolved using 6%-TBE Gels (Invitrogen) at 100V and imaged with a Typhoon Trio Imager (Amersham Biosciences). […]

For a further assay, the target named is T2, murine JunB. The assay is described as follows: EMSA supershift, Th17 nuclear extracts, IRF-site-mutated AICE probes.
For the assay “murine IRF-4”, the target named is B5. Kind of assay: EMSA, Th17 nuclear extracts, Bcl11b and CTLA-4 probes. As for the experimental part: as §1
The target in assay [1] is T3, BATF/JunB heterodimer. Kind of assay: EMSA, 293T nuclear extracts, AICE probes. The text has this: (§2) (a-d) EMSAs using the Bcl11b probe and 293T nuclear extracts as a source of indicated proteins (a) c-Jun, BATF, IRF-4, (b) FosL2, JunB, IRF-4, (c) JunB, BATF, IRF-8 or (d) JunB, BATF, IRF-3 (e) EMSA using an ISRE containing probe and IRF-3 or IRF-4. Complexes were supershifted with indicated antibodies. Red and green arrows mark the ternary and quaternary protein-DNA complexes, respectively as in FIG. 1d. Data are representative of at least two independent experiments. (f-h) Th0 cells and Th2 cells differentiated in vitro (42 hours) and LPS-activated dendritic cells (6 hours) were subjected to chromatin crosslinking and immunoprecipitation with antibodies directed against IRF-4. Immunoprecipitated chromatin was deep sequenced and analyzed as in FIG. 3a.
(§3) Nuclear extracts were prepared from 293T cells (2×107), 48 hours after their transfection or from Th17 cells (8×107), 42 hours after their activation and differentiation. […]

Assay [2] addresses T3, BATF/JunB heterodimer. The assay is described as follows: EMSA on Bcl11b AICE DNA probe, 293T nuclear extracts.
Text: as §2, §3

The target in another assay is T4, JunB/FosL2 heterodimer. The assay is described as follows: EMSA on AICE DNA probes, 293T nuclear extracts.
Text: as §2, §3

For a further assay, the target named is T5, c-Jun/BATF heterodimer (murine, UniProt P05627 1-334; O35284 1-125).
T5 construct: also called BATF/cJun
The assay is described as follows: EMSA, 293T nuclear extracts, AICE probes.
Text: as §2, §3

The target of the assay “murine BATF” is B2. Kind of assay: cell-based or functional assay.

T5 sequence (P05627 whole entry, one chain of several): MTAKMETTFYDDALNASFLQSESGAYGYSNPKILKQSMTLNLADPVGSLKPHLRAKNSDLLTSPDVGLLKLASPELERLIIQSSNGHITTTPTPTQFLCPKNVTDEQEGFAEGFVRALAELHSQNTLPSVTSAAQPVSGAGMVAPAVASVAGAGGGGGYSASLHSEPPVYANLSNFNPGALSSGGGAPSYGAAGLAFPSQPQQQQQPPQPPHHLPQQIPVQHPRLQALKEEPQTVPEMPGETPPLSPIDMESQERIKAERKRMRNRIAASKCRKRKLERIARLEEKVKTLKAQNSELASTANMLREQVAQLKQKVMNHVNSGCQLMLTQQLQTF

Regarding B1, in the assay with His-tagged IRF4, the binding result is reported as “binds”.
B2: the binding result with murine JunB and with murine IRF-4 was “binds” in each case.
Consider B3, for which the binding result with BATF/JunB heterodimer [1] is recorded as “binds”.
On to B4, for which, in the assay with BATF/JunB heterodimer [2], the binding result is on record as “no binding”.
B5: in the assay with JunB/FosL2 heterodimer, the binding result is reported as “no binding”. Moreover, the binding result in the assay with c-Jun/BATF heterodimer is recorded as “binds”. For the same molecule, in the assay with murine BATF, the “CTLA-4 levels (intracellular, flow cytometry) in T cells transduced with IRF4 and/or BATF retroviruses” value came out at 3 fold; the “ICOS levels (surface expression, flow cytometry) in Th0 cells transduced with IRF4 and/or BATF retroviruses” value is about 6 fold; the “frequency of IL-17A producing cells by intracellular flow cytometry” value was 2 fold.
